Our source for the Kd values is paper PMC3763545 (Nucleic Acids Research, 2013).

B2: human full-length SLIP1 (natural protein, UniProt A9UHW6 1-222, looked up)
chain: MGEPSREEYKIQSFDAETQQLLKTALKDPGAVDLEKVANVIVDHSLQDCVFSKEAGRMCYAIIQAESKQAGQSVFRRGLLNRLQQEYQAREQLRARSLQGWVCYVTFICNIFDYLRVNNMPMMALVNPVYDCLFRLAQPDSLSKEEEVDCLVLQLHRVGEQLEKMNGQRMDELFVLIRDGFLLPTGLSSLAQLLLLEIIEFRAAGWKTTPAAHKYYYSEVSD

Common to all, as to assay: ITC
In test [1] the target is zebrafish (Danio rerio) full-length SLIP1 (zebrafish (Danio rerio)).
Test [2] concerns the target B2.
Test [3] concerns the target T1, human DBP5 f.l. (residues 1-479) (human, UniProt Q9UMR2 1-479).
T1 sequence (looked up): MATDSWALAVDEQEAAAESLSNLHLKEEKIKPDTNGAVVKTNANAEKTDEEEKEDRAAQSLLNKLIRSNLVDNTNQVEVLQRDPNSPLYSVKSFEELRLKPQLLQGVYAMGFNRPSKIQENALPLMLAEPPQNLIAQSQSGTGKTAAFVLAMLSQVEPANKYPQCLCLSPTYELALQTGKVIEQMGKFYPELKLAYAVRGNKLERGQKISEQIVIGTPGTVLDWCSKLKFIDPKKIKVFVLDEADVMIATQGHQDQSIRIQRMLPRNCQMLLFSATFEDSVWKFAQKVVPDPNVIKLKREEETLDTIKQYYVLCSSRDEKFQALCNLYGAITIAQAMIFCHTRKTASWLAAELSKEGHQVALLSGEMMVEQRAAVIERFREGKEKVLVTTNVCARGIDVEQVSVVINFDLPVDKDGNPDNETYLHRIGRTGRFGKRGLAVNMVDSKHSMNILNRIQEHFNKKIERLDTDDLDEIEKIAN

In turn, “zebrafish DBP5 residues 1-32 (domain or fragment)” returned a Kd in test [1] of 2000 nM.

B1: human DBP5 residues 1-51 (domain or fragment, UniProt Q9UMR2 1-51, looked up)
chain: MATDSWALAVDEQEAAAESLSNLHLKEEKIKPDTNGAVVKTNANAEKTDEE
B1 came in with a Kd in test [2] of approximately 1100 nM.

B2: the equilibrium dissociation constant (Kd) in test [3] is 100 nM.
